Results taken from patent publication US20260008853A1 (BEONE MEDICINES I, published 2026).
Values belong to the molecule of their own block, whether it stands above or below them.

Key:
[1] = molecular target: Human CD16A (V158) on NK92mi/CD16A V158 cells (human) (UniProt P08637); assay: flow cytometry on NK92mi/CD16A V158 cells, anti-human IgG Fc detection
[2] = molecular target: Human CD16B (NA1) on NK92mi/CD16B (NA1) cells (human) (UniProt O75015); assay: flow cytometry on NK92mi/CD16B(NA1) cells, anti-human IgG Fc detection
Human CD16B (NA1) on NK92mi/CD16B (NA1) cells (human), sequence (O75015 other isoform, or with tags, fused parts or gaps limits assumed): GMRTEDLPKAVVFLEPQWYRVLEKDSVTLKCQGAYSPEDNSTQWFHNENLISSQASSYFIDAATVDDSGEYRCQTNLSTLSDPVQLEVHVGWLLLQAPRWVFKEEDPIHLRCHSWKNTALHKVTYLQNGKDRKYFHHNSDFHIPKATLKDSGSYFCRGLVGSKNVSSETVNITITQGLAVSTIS

[3] = molecular target: Human CD16B (NA2) on NK92mi/CD16B (NA2) cells (human) (UniProt O75015); assay: flow cytometry on NK92mi/CD16B(NA2) cells, anti-human IgG Fc detection
Human CD16B (NA2) on NK92mi/CD16B (NA2) cells (human), sequence (O75015 17-200 N65S limits assumed): as the sequence (O75015 other isoform, or with tags, fused parts or gaps limits assumed) above, with R20S, N49S, D66N, V90I counted along it

[4] = molecular target: T1, human CD16B-His6 (SH) (human, UniProt O75015 17-200); assay: antigen ELISA, coated human CD16B-His6 (SH), HRP anti-human IgG
T1 construct: Bought ECD fragment (Sino Biologics); also called CD16B SH allotype; human CD16B (SH); not shown: six-histidine tag
T1 sequence (O75015 17-200): as the sequence (O75015 other isoform, or with tags, fused parts or gaps limits assumed) above, with R20S, D66N, V90I counted along it

Human CD16A (V158) on NK92mi/CD16A V158 cells (human), sequence (P08637 17-254 F176V limits assumed): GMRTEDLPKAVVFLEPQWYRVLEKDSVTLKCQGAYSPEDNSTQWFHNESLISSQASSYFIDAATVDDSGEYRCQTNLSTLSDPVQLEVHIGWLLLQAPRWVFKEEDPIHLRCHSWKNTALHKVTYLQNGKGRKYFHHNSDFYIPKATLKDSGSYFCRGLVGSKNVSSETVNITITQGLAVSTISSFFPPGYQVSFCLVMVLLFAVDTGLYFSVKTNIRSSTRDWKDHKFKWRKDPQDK

EC50 [1]: 0.0112 µg/mL
EMAX [1]: 7.55
EC50 [2]: 10.3 µg/mL
EMAX [2]: 7.46
EC50 [3]: 0.314 µg/mL
EMAX [3]: 7.66
Molecule: Human IgG (antibody)

binding result [4]: no binding (tested: 1 ug/ml)
B1: LS21 (scFv)
scFv: EVQLVQSGAEVKKPGESLKVSCKASGYTFTSYYMHWVRQAPGQGLEWMGIINPSGGSTSYAQKFQGRVTMTRDTSTSTVYMELSSLRSEDTAVYYCARGSAYYYDFADYWGQGTLVTVSSGGGGSGGGGSGGGGSQPVLTQPSSVSVAPGQTATISCGGHNIGSKNVHWYQQRPGQSPVLVIYQDNKRPSGIPERFSGSNSGNTATLTISGTQAMDEADYYCQVWDNYSVLFGGGTKLTVL
notes: also called positive control
